To fix the notation:
T1: EpCAM (human, UniProt P16422 24-314)
T1 construct: whole, on cells; also called EpCAM cell surface target antigen on A549 and SKOV3 cells
T1 sequence (looked up): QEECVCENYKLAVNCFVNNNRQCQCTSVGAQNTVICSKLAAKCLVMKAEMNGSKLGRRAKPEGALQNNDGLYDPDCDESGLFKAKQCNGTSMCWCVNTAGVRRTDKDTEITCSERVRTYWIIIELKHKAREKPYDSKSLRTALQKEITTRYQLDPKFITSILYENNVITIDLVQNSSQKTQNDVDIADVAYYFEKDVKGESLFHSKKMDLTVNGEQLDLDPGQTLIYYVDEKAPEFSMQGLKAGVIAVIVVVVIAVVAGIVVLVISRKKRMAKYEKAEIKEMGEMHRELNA

B1: anti-EpCAM-ScFv-rigid linker-RAET1G3 fusion protein (without a C-terminal tag) (other)
chain: ELVMTQSPSSLTVTAGEKVTMSCKSSQSLLNSGNQKNYLTWYQQKPGQPPKLLIYWASTRESGVPDRFTGSGSGTDFTLTISSVQAEDLAVYYCQNDYSYPLTFGAGTKLEIKGGGGSGGGGSGGGGSEVQLLEQSGAELVRPGTSVKISCKASGYAFTNYWLGWVKQRPGHGLEWIGDIFPGSGNIHYNEKFKGKATLTADKSSSTAYMQLSSLTFEDSAVYFCARLRNWDEPMDYWGQGTTVTVSSTPSHLSHILPSFGLPTFNGLADPHSLCYDITVIPKFRPGPRWCAVQGQVDEKTFLHYDCGSKTVTPVSPLGKKLNVTTAWKAQNPVLREVVDILTEQLLDIQLENYIPKENRMWTTVHPGARKMKEKWENDKDMTMSFHYISMGDCTGWLEDFLMGMDSTLEPSAGGTV
notes: also called bispecific protein of NG-1118
B2: anti-EpCAM-ScFv-flexible linker-human CD19 EC domain fusion protein (without a C-terminal tag) (other)
chain: ELVMTQSPSSLTVTAGEKVTMSCKSSQSLLNSGNQKNYLTWYQQKPGQPPKLLIYWASTRESGVPDRFTGSGSGTDFTLTISSVQAEDLAVYYCQNDYSYPLTFGAGTKLEIKGGGGSGGGGSGGGGSEVQLLEQSGAELVRPGTSVKISCKASGYAFTNYWLGWVKQRPGHGLEWIGDIFPGSGNIHYNEKFKGKATLTADKSSSTAYMQLSSLTFEDSAVYFCARLRNWDEPMDYWGQGTTVTVSSGAGGSGGSSGSDGASGSRPEEPLVVKVEEGDNAVLQCLKGTSDGPTQQLTWSRESPLKPFLKLSLGLPGLGIHMRPLAIWLFIFNVSQQMGGFYLCQPGPPSEKAWQPGWTVNVEGSGELFRWNVSDLGGLGCGLKNRSSEGPSSPSGKLMSPKLYVWAKDRPEIWEGEPPCVPPRDSLNQSLSQDLTMAPGSTLWLSCGVPPDSVSRGPLSWTHVHPKGPKSLLSLELKDDRPARDMWVMETGLLLPRATAQDAGKYYCHRGNLTMSFHLEITAR
notes: also called bispecific protein of NG-1113; bispecific protein of NG-1115
B3: RAET1G3-anti-EpCAM-ScFv fusion protein (without a C-terminal tag) (other)
chain: GLADPHSLCYDITVIPKFRPGPRWCAVQGQVDEKTFLHYDCGSKTVTPVSPLGKKLNVTTAWKAQNPVLREVVDILTEQLLDIQLENYIPKENRMWTTVHPGARKMKEKWENDKDMTMSFHYISMGDCTGWLEDFLMGMDSTLEPSAGGTVGGGGSELVMTQSPSSLTVTAGEKVTMSCKSSQSLLNSGNQKNYLTWYQQKPGQPPKLLIYWASTRESGVPDRFTGSGSGTDFTLTISSVQAEDLAVYYCQNDYSYPLTFGAGTKLEIKGGGGSGGGGSGGGGSEVQLLEQSGAELVRPGTSVKISCKASGYAFTNYWLGWVKQRPGHGLEWIGDIFPGSGNIHYNEKFKGKATLTADKSSSTAYMQLSSLTFEDSAVYFCARLRNWDEPMDYWGQGTTVTVSS
notes: also called bispecific protein of NG-1112
B4: anti-EpCAM-ScFv-flexible linker-RAET1G3 fusion protein (without a C-terminal tag) (other)
chain: ELVMTQSPSSLTVTAGEKVTMSCKSSQSLLNSGNQKNYLTWYQQKPGQPPKLLIYWASTRESGVPDRFTGSGSGTDFTLTISSVQAEDLAVYYCQNDYSYPLTFGAGTKLEIKGGGGSGGGGSGGGGSEVQLLEQSGAELVRPGTSVKISCKASGYAFTNYWLGWVKQRPGHGLEWIGDIFPGSGNIHYNEKFKGKATLTADKSSSTAYMQLSSLTFEDSAVYFCARLRNWDEPMDYWGQGTTVTVSSGAGGSGGSSGSDGASGSRGLADPHSLCYDITVIPKFRPGPRWCAVQGQVDEKTFLHYDCGSKTVTPVSPLGKKLNVTTAWKAQNPVLREVVDILTEQLLDIQLENYIPKENRMWTTVHPGARKMKEKWENDKDMTMSFHYISMGDCTGWLEDFLMGMDSTLEPSAGGTV
notes: also called bispecific protein of NG-1117
B5: anti-EpCAM-ScFv-rigid linker-human CD19 EC domain fusion protein (without a C-terminal tag) (other)
chain: ELVMTQSPSSLTVTAGEKVTMSCKSSQSLLNSGNQKNYLTWYQQKPGQPPKLLIYWASTRESGVPDRFTGSGSGTDFTLTISSVQAEDLAVYYCQNDYSYPLTFGAGTKLEIKGGGGSGGGGSGGGGSEVQLLEQSGAELVRPGTSVKISCKASGYAFTNYWLGWVKQRPGHGLEWIGDIFPGSGNIHYNEKFKGKATLTADKSSSTAYMQLSSLTFEDSAVYFCARLRNWDEPMDYWGQGTTVTVSSTPSHLSHILPSFGLPTFNPEEPLVVKVEEGDNAVLQCLKGTSDGPTQQLTWSRESPLKPFLKLSLGLPGLGIHMRPLAIWLFIFNVSQQMGGFYLCQPGPPSEKAWQPGWTVNVEGSGELFRWNVSDLGGLGCGLKNRSSEGPSSPSGKLMSPKLYVWAKDRPEIWEGEPPCVPPRDSLNQSLSQDLTMAPGSTLWLSCGVPPDSVSRGPLSWTHVHPKGPKSLLSLELKDDRPARDMWVMETGLLLPRATAQDAGKYYCHRGNLTMSFHLEITAR
notes: also called bispecific protein of NG-1114; bispecific protein of NG-1116
B6: anti-EpCAM-ScFv-human CD19 EC domain fusion protein (without a C-terminal tag) (other)
chain: ELVMTQSPSSLTVTAGEKVTMSCKSSQSLLNSGNQKNYLTWYQQKPGQPPKLLIYWASTRESGVPDRFTGSGSGTDFTLTISSVQAEDLAVYYCQNDYSYPLTFGAGTKLEIKGGGGSGGGGSGGGGSEVQLLEQSGAELVRPGTSVKISCKASGYAFTNYWLGWVKQRPGHGLEWIGDIFPGSGNIHYNEKFKGKATLTADKSSSTAYMQLSSLTFEDSAVYFCARLRNWDEPMDYWGQGTTVTVSSGGGGSPEEPLVVKVEEGDNAVLQCLKGTSDGPTQQLTWSRESPLKPFLKLSLGLPGLGIHMRPLAIWLFIFNVSQQMGGFYLCQPGPPSEKAWQPGWTVNVEGSGELFRWNVSDLGGLGCGLKNRSSEGPSSPSGKLMSPKLYVWAKDRPEIWEGEPPCVPPRDSLNQSLSQDLTMAPGSTLWLSCGVPPDSVSRGPLSWTHVHPKGPKSLLSLELKDDRPARDMWVMETGLLLPRATAQDAGKYYCHRGNLTMSFHLEITARPVLWHWLLRTGGWK
notes: also called bispecific protein of NG-1109
B7: human CD19 EC domain-anti-EpCAM-ScFv fusion protein (without a C-terminal tag) (other)
chain: PEEPLVVKVEEGDNAVLQCLKGTSDGPTQQLTWSRESPLKPFLKLSLGLPGLGIHMRPLAIWLFIFNVSQQMGGFYLCQPGPPSEKAWQPGWTVNVEGSGELFRWNVSDLGGLGCGLKNRSSEGPSSPSGKLMSPKLYVWAKDRPEIWEGEPPCVPPRDSLNQSLSQDLTMAPGSTLWLSCGVPPDSVSRGPLSWTHVHPKGPKSLLSLELKDDRPARDMWVMETGLLLPRATAQDAGKYYCHRGNLTMSFHLEITARPVLWHWLLRTGGWKGGGGSELVMTQSPSSLTVTAGEKVTMSCKSSQSLLNSGNQKNYLTWYQQKPGQPPKLLIYWASTRESGVPDRFTGSGSGTDFTLTISSVQAEDLAVYYCQNDYSYPLTFGAGTKLEIKGGGGSGGGGSGGGGSEVQLLEQSGAELVRPGTSVKISCKASGYAFTNYWLGWVKQRPGHGLEWIGDIFPGSGNIHYNEKFKGKATLTADKSSSTAYMQLSSLTFEDSAVYFCARLRNWDEPMDYWGQGTTVTVSS
notes: also called bispecific protein of NG-1110
B8: anti-EpCAM-ScFv-RAET1G3 fusion protein (without a C-terminal tag) (other)
chain: ELVMTQSPSSLTVTAGEKVTMSCKSSQSLLNSGNQKNYLTWYQQKPGQPPKLLIYWASTRESGVPDRFTGSGSGTDFTLTISSVQAEDLAVYYCQNDYSYPLTFGAGTKLEIKGGGGSGGGGSGGGGSEVQLLEQSGAELVRPGTSVKISCKASGYAFTNYWLGWVKQRPGHGLEWIGDIFPGSGNIHYNEKFKGKATLTADKSSSTAYMQLSSLTFEDSAVYFCARLRNWDEPMDYWGQGTTVTVSSGGGGSGLADPHSLCYDITVIPKFRPGPRWCAVQGQVDEKTFLHYDCGSKTVTPVSPLGKKLNVTTAWKAQNPVLREVVDILTEQLLDIQLENYIPKENRMWTTVHPGARKMKEKWENDKDMTMSFHYISMGDCTGWLEDFLMGMDSTLEPSAGGTV
notes: also called bispecific protein of NG-1111

The target of this experiment is T1, EpCAM. Briefly: flow cytometry, supernatant of transfected A549 cells on fresh A549 cells.
Experimental: These plasmids were transfected into A549 human lung tumour cells and cells cultured for 72 hours. Cell culture supernatants (SN) containing secreted bispecific proteins were collected and added to fresh untransfected A549 cells in suspension and incubated for 1.5 hours at room temperature. During this time, the bispecific proteins present in the SN can bind to the A549 cells through their anti-EpCAM ScFv or anti-HER2 ScFV portion. […] For designs having CD19 as CAR-T target, the CD19 extracellular domain portion of the protein was detected by flow cytometry using an anti-CD19 antibody.
As to B1, the binding result is reported as “binds”. B2: the binding result is “binds”. As for B3, the binding result is “no binding”. The value for B4 was “binds”; that for B5 was “binds”. Consider B6, for which the binding result is “binds”. Regarding B7, the binding result is “no binding”. The value for B8 was “binds”.
